± gives the standard deviation of the averaged measurements.
The sequences below were run on ATP (assay: switch fluorescence ratio, 500 uM ATP over buffer (Cy3 cluster intensity, sum of 5 cycles each) (fold (ratio)); higher = stronger signal-on switching upon ATP binding; sequences stand for … in TCGTCGGCAGCGTCAGATGTGTATAAGAGACAGTTTTTTTTTTTTTTTTTTTTTTTTT…TC). Conditions: aptamer strand: ATP DNA aptamer (quencher-CACCTGGGGGAGTATTGCGGAGGAAGG + anchor), 100 nM annealed; ATP concentration: 500 uM.
Procedure, shortened: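 The quencher-labelled ATP aptamer, at 100 nM, was annealed to Cy3-labelled switching-strand clusters on a modified Illumina MiSeq flow-cell. The clusters were imaged in selection buffer, then after 15 min with 500 uM ATP at 22 °C, and this buffer/ATP cycle ran five times with NaOH stripping and re-annealing between runs. Per-cluster fluorescence ratios, summed target-cycle over summed buffer-cycle Cy3 intensity, were averaged per switch-domain sequence. Clusters outside 100-1000 RFU were excluded.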
AAAATCCTTG gave a switch fluorescence ratio of 1.01 ± 0.04.
CGCCCCGCTG was tested, and the switch fluorescence ratio was 1.13 ± 0.071.
Sequence GGGAATGTAG has a switch fluorescence ratio of 1.01 ± 0.018.
TTTGCCGCGT gave a switch fluorescence ratio of 1.03 ± 0.012.
Sequence GGCCTCGCCT has a switch fluorescence ratio of 0.98511 ± 9.3e-05.
TTGTTGAGAG gave a switch fluorescence ratio of 1.02 ± 0.022.
Work on TTCTTGAGGT yielded a switch fluorescence ratio of 0.9669 ± 0.0016.
Work on TTCCTAGGGA yielded a switch fluorescence ratio of 0.994 ± 0.046.
TTTACTGAGA was tested, and the switch fluorescence ratio was 1.01 ± 0.033.
In the case of CTCCAGAGGG, the switch fluorescence ratio is reported as 2.47 ± 1.8.
With CGGGCATGCT the switch fluorescence ratio was 1.04 ± 0.034.
With CAATACTATA the switch fluorescence ratio was 1.11 ± 0.067.
With ATTTTTGAGG the switch fluorescence ratio was 1.02 ± 0.017.
AGAGGGGGGG showed a switch fluorescence ratio of 0.999 ± 0.038.
TCGTACGTGG showed a switch fluorescence ratio of 0.998 ± 0.016.
CATATTCCTA gave a switch fluorescence ratio of 0.999 ± 0.035.
Sequence GTTTGTGCGG has a switch fluorescence ratio of 0.9811 ± 0.0084.
Work on TAGGGGGGCC yielded a switch fluorescence ratio of 0.9669 ± 0.0015.
CATGAGAAGG gave a switch fluorescence ratio of 1.0186 ± 0.001.
Work on TAGGGGTTAG yielded a switch fluorescence ratio of 0.9808 ± 0.0098.
Sequence GAAGATTGGG has a switch fluorescence ratio of 0.998 ± 0.053.
In the case of CGGTACTTGG, the switch fluorescence ratio is reported as 0.967 ± 0.05.
Work on TGGGCGCCGT yielded a switch fluorescence ratio of 0.957 ± 0.017.
ATTCGTGTTT gave a switch fluorescence ratio of 0.978 ± 0.017.
Work on GTGGCAACAA yielded a switch fluorescence ratio of 0.984 ± 0.035.
With TATTTAAGGG the switch fluorescence ratio was 1.12 ± 0.16.
GGGATTGGCA showed a switch fluorescence ratio of 0.9798 ± 0.0092.
CGGCAGCCGG showed a switch fluorescence ratio of 1.01 ± 0.062.
CCGAGGTTTT gave a switch fluorescence ratio of 1.33 ± 0.22.
GATCAATGGG showed a switch fluorescence ratio of 0.997 ± 0.036.
TGGGTTAAGT was tested, and the switch fluorescence ratio was 1 ± 0.021.
Work on AACGTTTAGG yielded a switch fluorescence ratio of 1.015 ± 0.0099.
TGCCCGGTTT gave a switch fluorescence ratio of 1.01 ± 0.0077.
GGAGATAGTT was tested, and the switch fluorescence ratio was 0.9806 ± 0.0057.
For CCGTATGGAG, the switch fluorescence ratio was 0.9959 ± 0.002.
Work on GACGTTCTGT yielded a switch fluorescence ratio of 1.03 ± 0.063.
GGTTTTCACC showed a switch fluorescence ratio of 0.9866 ± 0.0065.
GGATTTATAA gave a switch fluorescence ratio of 0.9961 ± 0.0011.
ACAGTCATGG gave a switch fluorescence ratio of 1.021 ± 0.0092.
CTTAGGGGTC was tested, and the switch fluorescence ratio was 0.997 ± 0.026.
With TTTTTTGCTG the switch fluorescence ratio was 0.985 ± 0.026.
AAGGGTGGTA showed a switch fluorescence ratio of 0.981 ± 0.016.
In the case of GGGACCGGTT, the switch fluorescence ratio is reported as 0.99 ± 0.03.
For AGATATTAGA, the switch fluorescence ratio was 1.017 ± 0.0048.
Work on TAAAGTGTTG yielded a switch fluorescence ratio of 1.02 ± 0.024.
Sequence ATTTTTATTT has a switch fluorescence ratio of 1.07 ± 0.12.
AAAGTAGTTA showed a switch fluorescence ratio of 0.991 ± 0.015.
Work on AAATTGCGGC yielded a switch fluorescence ratio of 0.975 ± 0.012.
ATAAAGGCGA was tested, and the switch fluorescence ratio was 0.975 ± 0.043.
Work on CACTTATGTG yielded a switch fluorescence ratio of 0.99 ± 0.038.
In the case of GAGAGTGACT, the switch fluorescence ratio is reported as 0.969 ± 0.0083.
With CGGGTCTTGG the switch fluorescence ratio was 1.03 ± 0.023.
With AAGGTGCCGG the switch fluorescence ratio was 1.0373 ± 0.00076.
For GAGGAAAAGT, the switch fluorescence ratio was 0.997 ± 0.051.
Sequence AAAAGAGGTT has a switch fluorescence ratio of 0.9996 ± 0.0072.
In the case of GGGATTTGTG, the switch fluorescence ratio is reported as 0.972 ± 0.01.
Sequence AAACTCTGCG has a switch fluorescence ratio of 1.05 ± 0.026.
In the case of CTGAAATGGT, the switch fluorescence ratio is reported as 0.9928 ± 0.0041.
With ATTCGCTGCT the switch fluorescence ratio was 1 ± 0.02.
With GATGTATGTG the switch fluorescence ratio was 1.02 ± 0.042.
For GAGTGACTCG, the switch fluorescence ratio was 1.01 ± 0.014.
CGCGAGAGGA showed a switch fluorescence ratio of 1.01 ± 0.016.
In the case of ATGTGGTCAT, the switch fluorescence ratio is reported as 1.008 ± 0.0065.
With CTGCTTTGTC the switch fluorescence ratio was 0.941 ± 0.0058.
Sequence CTCGGTTTGG has a switch fluorescence ratio of 1.01 ± 0.028.
TTCTGAACGT showed a switch fluorescence ratio of 1 ± 0.015.
In the case of GGGAAGGTAT, the switch fluorescence ratio is reported as 0.992 ± 0.017.
With GTACCTAACT the switch fluorescence ratio was 1.2 ± 0.025.
CTGGGGAAAA gave a switch fluorescence ratio of 1.57 ± 0.94.
Work on AGGGAGGCGG yielded a switch fluorescence ratio of 0.974 ± 0.032.
GTTGATAAGT showed a switch fluorescence ratio of 1.01 ± 0.0084.
GAGCATAGTT was tested, and the switch fluorescence ratio was 1.03 ± 0.014.
ATCATATTAG was tested, and the switch fluorescence ratio was 1.01 ± 0.019.
With AGCGGATTAA the switch fluorescence ratio was 1.016 ± 0.0017.
In the case of CGGGGCGTGT, the switch fluorescence ratio is reported as 0.988 ± 0.046.
For TTTATTTGTC, the switch fluorescence ratio was 0.992 ± 0.053.
For TTTACGAGTA, the switch fluorescence ratio was 1.01 ± 0.012.
For GACTGTTGTC, the switch fluorescence ratio was 0.9972 ± 0.0059.
With TAAAGTATAT the switch fluorescence ratio was 0.9976 ± 0.004.
Work on GGTAATTTGG yielded a switch fluorescence ratio of 1 ± 0.023.
For TGTATTGCGG, the switch fluorescence ratio was 1.02 ± 0.0071.
ATGCTATGCG gave a switch fluorescence ratio of 1.008 ± 0.01.
TGGATAAAGT showed a switch fluorescence ratio of 0.985 ± 0.013.
GATTTTAGTT was tested, and the switch fluorescence ratio was 0.9848 ± 0.0086.
Work on TTGGGGCAAC yielded a switch fluorescence ratio of 1.03 ± 0.047.
For TATGGGTGTG, the switch fluorescence ratio was 1.02 ± 0.037.
CGTTGTACTT showed a switch fluorescence ratio of 1.01 ± 0.052.
For TGCAAGTTTT, the switch fluorescence ratio was 1.24 ± 0.33.
With TCCCTTGGGT the switch fluorescence ratio was 1 ± 0.0092.
In the case of CCTGGGGTAT, the switch fluorescence ratio is reported as 1.09 ± 0.05.
TAGATATTGG was tested, and the switch fluorescence ratio was 1.01 ± 0.016.
Sequence AAACAGCCGG has a switch fluorescence ratio of 1.03 ± 0.0074.
TTTTAGGCCT gave a switch fluorescence ratio of 1.045 ± 0.0027.
For AGATGCCATG, the switch fluorescence ratio was 1.032 ± 0.0075.
Work on AAGGGATCGG yielded a switch fluorescence ratio of 0.994 ± 0.024.
Sequence GCGGTAAGGG has a switch fluorescence ratio of 1.016 ± 0.004.
GGAAGTTTAA gave a switch fluorescence ratio of 1 ± 0.02.
TGGTTCTGTG was tested, and the switch fluorescence ratio was 1.0262 ± 0.00041.
With AAAGGGTTTC the switch fluorescence ratio was 1 ± 0.038.
TCTATCAGGG was tested, and the switch fluorescence ratio was 0.995 ± 0.011.
For TGGGCTAAGC, the switch fluorescence ratio was 1.03 ± 0.028.
For CAAAGTAAAA, the switch fluorescence ratio was 1.04 ± 0.054.
In the case of TTACGGAGGG, the switch fluorescence ratio is reported as 1.02 ± 0.038.
Work on AGGGGGGAGG yielded a switch fluorescence ratio of 0.997 ± 0.026.
Work on CATATATCAT yielded a switch fluorescence ratio of 1.008 ± 0.0095.
TTGAGGTATG showed a switch fluorescence ratio of 0.9838 ± 0.0046.
Work on GCGATGGCTG yielded a switch fluorescence ratio of 0.957 ± 0.015.
For TTTGTAAAGT, the switch fluorescence ratio was 0.976 ± 0.019.
For GTTCAGTTGC, the switch fluorescence ratio was 0.996 ± 0.033.
For GCATATTTGA, the switch fluorescence ratio was 0.981 ± 0.015.
TATAACATGT was tested, and the switch fluorescence ratio was 0.997 ± 0.026.
GGGTTGGGAA was tested, and the switch fluorescence ratio was 0.988 ± 0.023.
CAAATTTGC showed a switch fluorescence ratio of 0.9315 ± 0.0035.
TGGGTGATCG was tested, and the switch fluorescence ratio was 1.03 ± 0.067.
With AGCGAGTTGG the switch fluorescence ratio was 0.958 ± 0.039.
Sequence TCCTTTGTAT has a switch fluorescence ratio of 1.1 ± 0.015.
In the case of GCGATTAGTT, the switch fluorescence ratio is reported as 0.9711 ± 0.0012.
TTGACTTATA gave a switch fluorescence ratio of 1.01 ± 0.022.
TGCTGAAGGA was tested, and the switch fluorescence ratio was 0.9743 ± 0.0064.
ATAAATACAG showed a switch fluorescence ratio of 0.9959 ± 0.0042.
ATATTTAACC gave a switch fluorescence ratio of 1.02 ± 0.025.
For TGTTAATGTT, the switch fluorescence ratio was 1 ± 0.029.
ATTGGATCGA was tested, and the switch fluorescence ratio was 1.01 ± 0.054.
TTTGGTCTTT showed a switch fluorescence ratio of 1 ± 0.02.
With AACGTTAGGA the switch fluorescence ratio was 1.03 ± 0.051.
AAGTCGCATA was tested, and the switch fluorescence ratio was 1.04 ± 0.017.
Work on AGCATGATGG yielded a switch fluorescence ratio of 1.04 ± 0.021.
ACGGTCGACT showed a switch fluorescence ratio of 1.05 ± 0.057.
Work on GGGAGGGGCT yielded a switch fluorescence ratio of 1.02 ± 0.068.
Sequence TTGTATTTA has a switch fluorescence ratio of 1.01 ± 0.05.
In the case of TTCTATTGTT, the switch fluorescence ratio is reported as 0.999 ± 0.017.
For TTGAGGGGAA, the switch fluorescence ratio was 0.999 ± 0.025.
In the case of CGGAAACATT, the switch fluorescence ratio is reported as 1.04 ± 0.039.
Work on TTTATTATGT yielded a switch fluorescence ratio of 0.994 ± 0.034.
AGAAATTGGA gave a switch fluorescence ratio of 1.02 ± 0.044.
ATTTAGGATG showed a switch fluorescence ratio of 1.01 ± 0.021.
TAAGAAGATT was tested, and the switch fluorescence ratio was 0.986 ± 0.024.
Work on ACCAGATCAC yielded a switch fluorescence ratio of 1.04 ± 0.019.
With CGGTACGACG the switch fluorescence ratio was 0.94 ± 0.019.
With GTTTTTGACA the switch fluorescence ratio was 0.989 ± 0.015.
TTTGTTAAGT gave a switch fluorescence ratio of 1.01 ± 0.05.
ATTATTTCCC gave a switch fluorescence ratio of 1.05 ± 0.082.
In the case of TATCTGCTAC, the switch fluorescence ratio is reported as 3.67 ± 0.7.
Sequence AGGGGAGTGT has a switch fluorescence ratio of 0.988 ± 0.029.
TATTAATGTG gave a switch fluorescence ratio of 0.974 ± 0.042.
For TAATTAGTGG, the switch fluorescence ratio was 0.9832 ± 0.0051.
ACCGCGAAGG showed a switch fluorescence ratio of 1.025 ± 0.0058.
Work on ATTGAAGGGA yielded a switch fluorescence ratio of 1.018 ± 0.0059.
GGATTGAAGT was tested, and the switch fluorescence ratio was 0.981 ± 0.023.
With GGGATGGGTC the switch fluorescence ratio was 0.985 ± 0.02.
With ACAATCGAGC the switch fluorescence ratio was 0.988 ± 0.047.
For CGGTCTACCT, the switch fluorescence ratio was 1.02 ± 0.014.
For TTTTAATCCC, the switch fluorescence ratio was 1.07 ± 0.062.
In the case of TAATGGGTTT, the switch fluorescence ratio is reported as 0.999 ± 0.062.
With GCGGTAGGG the switch fluorescence ratio was 1.02 ± 0.0055.
In the case of GGGAAGAGGC, the switch fluorescence ratio is reported as 1.01 ± 0.038.
Sequence TCGTTCAGCG has a switch fluorescence ratio of 0.997 ± 0.019.

— the supplement of paper PMC10126150
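Also: ATP exposure 15 min at 22 °C before imaging.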
